According to the DeepSol protein solubility set:

test: soluble on expression in E. coli; label from the status in PepcDB or PDB records

Sequence | soluble on expression in E. coli
SNAMKELIKEHQKDINPALQLHDWVEYYRPFAANGQSANYIPALGKVNDSQLGICVLEPDGTMIHAGDWNVSFTMQSISKVISFIAACMSRGIPYVLDRVDVEPTGDAFNSIIRLEINKPGKPFNPMINAGALTIASILPGESAYEKLEFLYSVMETLIGKRPRIHEEVFRSEWETAHRNRALAYYLKETNFLEAEVEETLEVYLKQCAMESTTEDIALIGLILAHDGYHPIRHEQVIPKDVAKLAKALMLTCGMYNASGKYAAFVGVPAKSGVSGGIMALVPPSARREQPFQSGCGIGIYGPAIDEYGNSLTGGMLLKHMAQEWELSIF | soluble
MINQNATYMEESAQSAVDNFGLGFNLGNTLDANGCGTGKPVATYETFWGQPETTQDMMTFLMQNGFNAVRIPVTWYEHMDAEGNVDEAWMMRVKAIVEYAMNAGLYAIVNVHHDTAAGSGAWIKADTDVYAATKEKFKKLWTQIANALADYDQHLLFEGYNEMLDGNNSWDEPQKASGYEALNNYAQDFVDAVRATGGNNATRNLIVNTYAAAKGENVLNNFMLPTDAVNNHLIVQVHSYDPWNFFNTKTTWDSECHNTLTEIFSALSKKFTTIPYIIGEYGTHGESDISVSKSSPAEKIKLAADQAADMVKLAKDHHSATFYWMSIFDGSDRIQPQWSLPTVVEAMQEAYNN | soluble
MGSDKIHHHHHHPEQQVQQFAQLPVGFKNMGNTCYLNATLQALYRVNDLRDMILNYNPSQGVSNSGAQDEEIHKQIVIEMKRCFENLQNKSFKSVLPVVLLNTLRKCYPQFAERDSQGGFYKQQDAEELFTQLFHSMSIVFGDKFSEDFRIQFKTTIKDTANDNDITVKENESDSKLQCHISGTTNFMRNGLLEGLNEKIEKRSDLTGANSIYSVEKKISRLPKFLTVQYVRFFWKRSTNKKSKILRKVVFPFQLDVADMLTPEYAAEKVKVRDELRKVEKEKNEKEREIKRRKFDPSSSENVMTPREQYETQVALNESEKDQWLEEYKKHFPPNLEKGENPSCVYNLIGVITHQGANSESGHYQAFIRDELDENKWYKFNDDKVSVVEKEKIESLAGGGESDSALILMYKGFGL | soluble
MTGVLVGCSVEKTNTNKVNIDKVEIVAPNVQGAGWDLTARAMQKTLTEEKIFTKPITVTNKVGGSGDVGWKYTKQKGGHVLAINSSLLITNNLLGHSKLTYKDFTPLATLASDWEVVVVSKDSNIENANQLMEQLKQNKKNFKIGVAPGLGNDDHLSFVQVSKAFGINPAELQFFVYENKEKIISALTNKQINAATMTLSEAEKQYKAGKIKILAVSAPKRIDRLPQIPTWKEQGIDVIFQHWKGIMGPKDMTEEEVAYWDDVIKRMVESDSWKGILRERGWESFYKGSGESSGWYGGMIKTEKVDEEGSYRMRFLGLFIGNLIYS | not soluble
MHHHHHHSSGVDLGTENLYFQSMDLRVQELIKLICNVQAMEEMMMEMKYNTKKAPLGKLTVAQIKAGYQSLKKIEDCIRAGQHGRALMEACNEFYTRIPHDFGLRTPPLIRTQKELSEKIQLLEALGDIEIAIKLVKTELQSPEHPLDQHYRNLHCALRPLDHESYEFKVISQYLQSTHAPTHSDYTMTLLDLFEVEKDGEKEAFREDLHNRMLLWHGSRMSNWVGILSHGLRIAHPEAPITGYMFGKGIYFADMSSKSANYCFASRLKNTGLLLLSEVALGQCNELLEANPKAEGLLQGKHSTKGLGKMAPSSAHFVTLNGSTVPLGPASDTGILNPDGYTLNYNEYIVYNPNQVRMRYLLKVQFNF | soluble
MGHHHHHHSHMVGTQPRFLVKIHQKFYWAIRDDLIIHGGYKRSGLTSSFALVAMGPLGRPWAASFGFFFLAVVSLATPTPGEDDDIPVKIHRLTFVKGLVPDVTGGSSYYVCVYPSRKLFCTPTRWKDLSRFLNSETLNQVCSARTIYSVVPVEMLRIISLPLPPEIKSIVGGSIRSQYVSFPTFISLHPAKLPIWKSFANLKVSMKFRSSQWEVAFSVVSKTDYAITYWAEIPGFLIHESATINLINQPLLALYADLHVDMVMRLTDKFIYCQTYTLQQKNLTDPRTGKRPTSSVLIPSPHVKNCQIRRRNETHFVDTCSSAWDNYTSEAHNISRNSSSRGSNATQLVNITANPCTLPTLWDNWPCYTNYRSSPVPEIVIHENILLEGRAIYIIYHQIGLFDQPRLCVATFWMSKEETLLMQLDYPCEVSVEKKGKKFFIKSVVSMYHAISMVTFIWEYGIEIYDFLE | not soluble
MSASVSLTTPVSVSCLINDVNPSVKAKKEDATAVTTTQAPKIAEAIHRSTPTLADNVLYDSTSYTHGVTTGSTNVPISSGQRPQQADYSLALLAKDVYAPTSGNLNGFVRLSDERLLAAGIDPTALSDSASGFLAGIYSDNQQYVLSFAGTNDRHDWLSNIRQAVGYEDVQYNEAVALGKTAKMAFGDALVITGHSLGGGLAATAALATGTFAVTFNAAGVAKNTLKRLGMDSAKARRSAENGGIRSYSEKYDLLTGIQELTSLIPNAVGHKIVLANSDKLTGVDDWLPHKHLERRISAHSIEKVLSSMSEQQPWERRYV | not soluble
MNTNISGPLISLIVPVYNVKDYLKTCLQSILEQTYKNLEIILVDDGSDDGSSGICDEYARMDQRIKTIHLPHSGVSAARNAGLAAATGELLGFVDSDDWIDHDMYQYLYTLMQEHDADVSACTYLLEQEGRPSKIINNTGKLYVFSRKEIIRALVKNDLVKNYLWAKLFKRKLFDRLSFPVGRVYEDVAVLYKVFYSSQKVVLSCVSKYHYMIHKNESITRGGYDPVKEYHYFLSLYEQDKFIQNAELGGESSVGVLKRGIHLINHTLLCPPSPAFEDIIDETMLKMREYRHITPWQLGPSMSIKRYFMCKHFGFYRMLYRGYRAIFKRKHKLLID | not soluble
MSEQTLEYFLNKGTIRRKDAADIEWYHAANSKSKLMEALRGSAQMIEADVLLRGADPEEPIMAHPPAKDSDITLQDWLKEVVKTDKGIKLDFKSLAAVSQSMSLLEEIRDQLKGPVWINADILPGPGGTATPVDPHVFLQEVAQRSENDVLSLGWTTGWTANVDNPGYSWEMVHQMEELCRPLKQPVTFPVRASLLPMSFPQFQWLLEQSDRSEILH | not soluble
MAIYADNSYSIGNTPLVRLKHFGHNGNVVVKIEGRNPSYSVKCRIGANMVWQAEKDGTLTKGKEIVDATSGNTGIALAYVAAARGYKITLTMPETMSLERKRLLCGLGVNLVLTEGAKGMKGAIAKAEEIVASDPSRYVMLKQFENPANPQIHRETTGPEIWKDTDGKVDVVVAGVGTGGSITGISRAIKLDFGKQITSVAVEPVESPVISQTLAGEEVKPGPHKIQGIGAGFIPKNLDLSIIDRVETVDSDTALATARRLMAEEGILAGISSGAAVAAADRLAKLPEFADKLIVVILPSASERYLSTALFEGIEG | soluble
MMHNPAHPGEVLKVAFLEEMGLTIQKLADHLHMTRASLSRVINGHASMSTELAIKLELAGFSKAKFWLDMQTNYNLWKTMQQAQPPISPLVSDSPQTSL | not soluble
MGSDKIHHHHHHMIRKIVEIDQEKCNGCGICVPACAEGAIRIENGKAVLAADNLCDGLGACLGECPLDAIRIIERDADEFDEAAVEAHLGQTSRESHHAAHQPAPVHGGCPGSRAMVLDRPATESVRDVPRQESRLRQWPVQLHLVPTSAPYFRNADLLIAADCVPFAYADFHREFLDGRAVVVGCPKLDDNRFYTEKLTELIRVNDLKSITVVRMEVPCCGGIVMAARQALAASSKDIPLREVTVGISGELKGA | not soluble
MSNVYWPLYEVFVRGKQGLSHRHVGSLHAADERMALENARDAYTRRSEGCSIWVVKASEIVASQPEERGEFFDPAESKVYRHPTFYTIPDGIEHM | soluble
SSTFEDADTEETVTCLQMTIYHPGQQSGIFKSIRFCSKEKFPSIEVVKFGRNSNMCQYTFQDKQVSRIQFVLQPFKQFNSSVLSFEIKNMSKKTSLMVDNQELGYLNKMDLPYKCMLRFGEYQFLLQKEDGESVESFETQFIMSSRPLLQENNWPTQNPIPEDGMYSSYFTHRSSPSEMDENEL | soluble
MGSDKIHHHHHHMGHSLNAKYGLKRVINASGRMSILGVSAPTDTVMDAMKHGGQNYVEIADLVDKAGDHIARILDSEAAVVVNSASSGIALSIAAIVTEGNRRKSERLHQEVIAKNEVIMLKGHNVQYGAPVETMIYLGGGKLVEVGYANEGKAEHIEDAIGENTAAILYVKSHHAVQKNMISVEEAWEVAQRNNIPLIVDAAAEEDIQKYVKYADLAIYSGSKAIEGPTSGIVGGKRKYIEWLKVQLHCIGRSMKVGKETTFGLLQALDEYGVKEDKSEQEKELLQVLMPLKELNGVNVTIVQDEAGRAIFRARIHIDENELNKSAKDVVTALREGEIAIYTRDYGVRQGFFDIDPRPLLGDDIHVIEEKLREIVGGN | not soluble
